Experiment [1] concerns the target recombinant murine SOCS-3, hexahistidine tagged (expressed from pET15b in E. coli, refolded) (murine) (UniProt O35718). Briefly: SPR competition assay, soluble peptide against immobilised biotin-gp130(750-764) phosphopeptide.
Experiment [2] has the same target. Briefly: SPR competition assay, reference gp130(750-764) phosphopeptide.
Experiment [3] has the same target. Briefly: SPR competition assay, soluble peptide against immobilised biotin-gp130(750-764) phosphopeptide, ~100 nM SOCS-3.
The target of experiment [4] is EPOR/gp130 chimeric receptor (erythropoietin receptor extracellular domain and gp130 cytoplasmic domain). Briefly: cell-based or functional assay.
Experiment [5] concerns the target EPOR/gp130Y757F chimeric receptor (EPO receptor extracellular domain and gp130 cytoplasmic domain with tyrosine 757 mutated to phenylalanine). Briefly: cell-based or functional assay.
Experiment [6] concerns the target recombinant murine SOCS-3, hexahistidine tagged (expressed from pET15b in E. coli, refolded) (murine) (UniProt O35718). Briefly: SPR competition assay, soluble peptide against immobilised biotin-gp130(750-764) phosphopeptide. This is another data set of the same source.
Experiment [7] has as its target T1, recombinant murine SOCS-3, hexahistidine tagged (expressed from pET15b in E. coli, refolded) (murine, UniProt O35718 1-225).
T1 construct: also called recombinant SOCS-3; suppressor of cytokine signalling 3; not shown: hexahistidine tag from vector pET15b (NdeI/BamHI cloning)
T1 sequence (looked up): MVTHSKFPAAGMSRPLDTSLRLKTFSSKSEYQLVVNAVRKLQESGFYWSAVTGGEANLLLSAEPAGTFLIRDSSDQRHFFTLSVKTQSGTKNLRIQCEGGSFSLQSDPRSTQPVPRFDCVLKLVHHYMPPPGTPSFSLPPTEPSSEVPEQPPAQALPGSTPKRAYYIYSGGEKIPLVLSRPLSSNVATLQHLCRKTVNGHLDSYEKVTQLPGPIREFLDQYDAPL
Briefly: pull-down: biotinylated phosphopeptide on streptavidin-agarose, eluate on SDS-PAGE. The procedure: After washing and elution of bound protein, samples were analyzed by SDS-PAGE.
Biotinylated phosphopeptides were also prepared corresponding to the known tyrosine phosphorylation sites in murine STAT-1 (Y701) and STAT-3 (Y705). […] Following removal of the protein solution, resin was washed twice with 1 mL PBS/0.1% v/v Tween-20, and bound protein eluted with 25 μL of SDS sample buffer containing 10 mM DTT, Samples were analyzed by SDS-PAGE on 12% w/v polyacrylamide gels.

Square brackets hold non-standard residues; d marks the D form. * marks the point of attachment. Biotin = O=C1N[C@H]2[C@H](CS[C@H]2CCCCC(=O)*)N1; pY = N[C@@H](Cc1ccc(OP(=O)(O)O)cc1)C(=O)O

As for “JAK1 activation loop phosphopeptide IETDKE(pY)YTVKDDRD”, the IC50 in experiment [1] stood at 230000 nM.
For “truncated gp130 phosphopeptide STASTVE(pY)STVVH”, the IC50 analogue/IC50 wild-type in experiment [2] came to 0.7. Moreover, the IC50 in experiment [3] amounted to 77 nM.
As to “truncated gp130 phosphopeptide STASTVE(pY)STVVHS”, the IC50 analogue/IC50 wild-type in experiment [2] stood at 0.55. For the same molecule, in experiment [3], the IC50 came out at 61 nM.
With “truncated gp130 phosphopeptide analogue AcVA(pY)STVVHSG”, the IC50 analogue/IC50 wild-type in experiment [2] was 5. Further, the IC50 in experiment [3] was 550 nM.
Take “gp130(750-764) phosphopeptide analogue STASTVE(pY)STVAHSG”: in experiment [2], the IC50 analogue/IC50 wild-type is 10. Besides, in experiment [3], the IC50 stood at 1100 nM.
As to “gp130(750-764) phosphopeptide analogue STASTVE(pY)STAVHSG”, the IC50 analogue/IC50 wild-type in experiment [2] came to 31. Besides, in experiment [3], the IC50 worked out at 3400 nM.
Consider “truncated gp130 phosphopeptide Ac(pY)STVVHSG”, for which the IC50 analogue/IC50 wild-type in experiment [2] amounted to 87. Besides, the IC50 in experiment [3] was 9600 nM.
Consider “SOCS-3 expressed in transiently transfected 293T cells (Flag-tagged, detected with anti-Flag antibody)”, for which the 50% inhibition of EPO-induced APRE-luc luciferase activity in 293T cells (amount of SOCS-3 DNA transfected) is 4 ng in experiment [4] and 54 ng in experiment [5].
On to “gp130(750-764) phosphopeptide analogue STASTVE(pY)STVVASG”, for which, in experiment [2], the IC50 analogue/IC50 wild-type stood at 7. Besides, the IC50 in experiment [3] was 770 nM.
For “JAK2 activation loop phosphopeptide LPQDKE(pY)YKVKEPGE”, the fold weaker affinity than gp130(750-764) in experiment [2] amounted to 10000 fold.
As to “truncated gp130 phosphopeptide AcE(pY)STVVHSG”, the IC50 analogue/IC50 wild-type in experiment [2] came to 8.8. Further, in experiment [3], the IC50 was 970 nM.
Consider “truncated gp130 phosphopeptide STASTVE(pY)STVV”, for which the IC50 analogue/IC50 wild-type in experiment [2] worked out at 10. Moreover, the IC50 in experiment [3] was 1100 nM.
Take “gp130(750-764) phosphopeptide analogue STASTVE(pY)ATVVHSG”: in experiment [2], the IC50 analogue/IC50 wild-type amounted to 0.65. For the same molecule, in experiment [3], the IC50 stood at 72 nM.
On the same counts, the results for “truncated gp130 phosphopeptide AcTVE(pY)STVVHSG” are 1.1 and 120 nM.
“truncated gp130 phosphopeptide analogue AcAE(pY)STVVHSG”: in experiment [2], the IC50 analogue/IC50 wild-type was 5.3. For the same molecule, the IC50 in experiment [3] was 580 nM.
For “JAK3 activation loop phosphopeptide LPLGKD(PY)YVVREPGQ”, the fold weaker affinity than gp130(750-764) in experiment [2] amounted to 1000 fold. Besides, the IC50 was 140000 nM in experiment [1] and 110000 nM in experiment [6].

B1: pY914 QTVRQGG(pY)MPQ gp130 (907-917) (peptide)
peptide: Biotin-QTVRQGG[pY]MPQ-NH2
SMILES: CSCC[C@H](NC(=O)[C@H](Cc1ccc(OP(=O)(O)O)cc1)NC(=O)CNC(=O)CNC(=O)[C@H](CCC(N)=O)NC(=O)[C@H](CCCNC(=N)N)NC(=O)[C@@H](NC(=O)[C@@H](NC(=O)[C@H](CCC(N)=O)NC(=O)CCCC[C@@H]1SC[C@@H]2NC(=O)N[C@@H]21)[C@@H](C)O)C(C)C)C(=O)N1CCC[C@H]1C(=O)N[C@@H](CCC(N)=O)C(N)=O
notes: also called biotinylated gp130(907-917) phosphopeptide; member of the group m25
Take B1: the binding result in experiment [7] is listed as “no binding (tested: 50 µg/mL)”.

B2: pY765 STVVHSG(pY)RHQVPSV gp130 (758-772) (peptide)
peptide: Biotin-STVVHSG[pY]RHQVPSV-NH2
SMILES: CC(C)[C@H](NC(=O)[C@H](CO)NC(=O)[C@@H]1CCCN1C(=O)[C@@H](NC(=O)[C@H](CCC(N)=O)NC(=O)[C@H](Cc1c[nH]cn1)NC(=O)[C@H](CCCNC(=N)N)NC(=O)[C@H](Cc1ccc(OP(=O)(O)O)cc1)NC(=O)CNC(=O)[C@H](CO)NC(=O)[C@H](Cc1c[nH]cn1)NC(=O)[C@@H](NC(=O)[C@@H](NC(=O)[C@@H](NC(=O)[C@H](CO)NC(=O)CCCC[C@@H]1SC[C@@H]2NC(=O)N[C@@H]21)[C@@H](C)O)C(C)C)C(C)C)C(C)C)C(N)=O
notes: also called biotinylated gp130(758-772) phosphopeptide; member of the group m25
In the case of B2, in experiment [7], the binding result is recorded as “no binding (tested: 50 µg/mL)”.

B3: biotinylated gp130(674-688) phosphopeptide (peptide)
peptide: Biotin-FNSKDQM[pY]SDGNFTD-NH2
SMILES: CSCC[C@H](NC(=O)[C@H](CCC(N)=O)NC(=O)[C@H](CC(=O)O)NC(=O)[C@H](CCCCN)NC(=O)[C@H](CO)NC(=O)[C@H](CC(N)=O)NC(=O)[C@H](Cc1ccccc1)NC(=O)CCCC[C@@H]1SC[C@@H]2NC(=O)N[C@@H]21)C(=O)N[C@@H](Cc1ccc(OP(=O)(O)O)cc1)C(=O)N[C@@H](CO)C(=O)N[C@@H](CC(=O)O)C(=O)NCC(=O)N[C@@H](CC(N)=O)C(=O)N[C@@H](Cc1ccccc1)C(=O)N[C@H](C(=O)N[C@@H](CC(=O)O)C(N)=O)[C@@H](C)O
As to B3, the binding result in experiment [7] is “no binding (tested: 50 µg/mL)”.

In general, IC50 refers to the point on the concentration scale where inhibition reaches its midpoint.

Values taken from patent US20030191058A1 (WALTER AND ELIZA INSTITUTE OF MEDICAL RESEARCH, published 2003).
